Experiment: yeast display, Sf9 membrane polyspecificity reagent, FACS + sequencing; frameworks hold sequencing errors
How it was run: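 Synthetic nanobody libraries on Saccharomyces cerevisiae BJ5465 were galactose-induced for 36–48 hours, stained 1 hour at 4 °C with 10% biotinylated, detergent-solubilized Sf9 membrane reagent and enriched on streptavidin microbeads. FACS then separated cells into low and high (top ~1%) gates by anti-HA (expression) and streptavidin (reagent binding) fluorescence. Genes were colony-PCR amplified, MiSeq 2 × 250 sequenced and CDR-length filtered. A clone's polyreactivity label is that of its gate of origin.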

Sequence | polyreactivity (PSR sort gate)
QVQLVESGGGLVQAAGSLRLICAASGSTFEGNVMGWYRPAPGKERELVAAMSVRGGSTYYADSVKGRFTISRDNAKNTVYLQMNSLKQEDTEDYYCAKKYYRPFWEGDYWGQGTQVTVSS | low polyreactivity
QVQLVESGGGLVQAGGSLRLSCAASGNTFGRYAMGGYRQAPGKERELVAAISWSGGSTYSADSVKGRFTISRDNAKNSLYLQMNSLKPEDTAVYYCAANSWRGFEYWGQGTQVTVSS | high polyreactivity
QVQLVESGGGLVQAGGSLRLSCAASGSTLTRNAMGLYRQAPGTERELVATITATGGSTYYADSVKGRFTISRDNAKYTVYLQMNSLKTEDTAVYYCAAAYPTYRHYYWGQGTQVTVSS | low polyreactivity
QVQLVESGGGLVQAGGSLRLSCAASGSIFGGYTMGWYRQAPGKERELVAGITISGGSTYYADSVKGRFTISRDNAKNTVYLQMNSLKPEDTAVYYCAAVSFVVSSWGYGYWGQGTQVTVSS | low polyreactivity
QVQLVESGGGLVQAGGSLRLSCAASGRIFVKNAMGWNRQAPGKESELVAAISASGGSTYYADSVKGRFTISRDNAKNTVDLQMNSLKPEDTAVYYCAARRRAFGSTYNYWGQGTQVTVSS | high polyreactivity
QVQHVESGGGLVQAGGSLRLSCAASGSIFITYAMGWYRQAPGKERELVAAIRDSGDRTYYADSVKGRFTISRDNAKNTVYLQMNSLKPEDTAVYYCNARWQEPQKYDYWGQGTQVTVSS | low polyreactivity
QVQLVESGGGLVQAGGSLRLSCAASGSILYRYAMGWYRQAPGKERELVAAITRSGGSTYYADSVKGRFTITRDNAKNTVYFQMNSLKPEDTAGYYCARQRKVSAHSIEMDYWGQGTQVTVSS | low polyreactivity
QVQLVESGGGLVQAGGSLRLSCAASGFIFGSYAMGWYRQAPGKERELVAAITSDGNTDYADSVKGRFTISRDNAKNTVYLQMNSLKPEDTAVYYCNKPYGAETALREFDYWGQGTQVTVSS | low polyreactivity
QVQLVESGGGLVQAGGSLRLSCAASGITFQRNAMGWYRQAPGKERELVAVITSIGGRTYYADSVKGRFTISRDNAKNTVYLQMNSLKPEDTAVYYCNAASATRSADWYDYDYWGQGTQVTVSS | high polyreactivity
QVQLVESGGCLVQAGRSHRLSCAASGRIFYGYALGWYRQAPGKERELVAAITRSSSTYYADSVKGRFTISRDNAKNTVYLQMNSLKPEDTAVYYCNAYSWYGYDYWGQGTQVTVSS | high polyreactivity
QVQLVESAGGLVQAGGSLRLSSAASGLIFPLYEMGWYRQAPGKERELVAAINWRGGSTYYADSVKGRFTISRDNAKNTVYLQMNSLKPEDTAVYYCAAGYLHRDSYIYDYWGQGTQVTVSS | low polyreactivity
QVQLVESGGGLVQAGGSLSLSCAASGRTFYTNAMGSSRQAPGKERELVAAISLRDVNTYYADSVKGRFTISRDNAKNTVYLQMNSLKPEDTAVYYCAARSRRRFDWGQGTQVTVSS | high polyreactivity
QVQLVESGGGLVQEGGSLRLSCAASGSTFSWYTMGWYRQAPGKERELVAAITRGGTTYYADSVKGRFTISRDNAKNTVYLQMISLKPEDTAVYYCAARYSRDVRMGYWGQGTQVTVSS | high polyreactivity
QVQLVESGGGLVQAGGSLRLSCAASGSIFSRYAMGWYRQAPGKEREVVADISQRAGSTYYADSVKGRFTISRDNAKITVYLQMNSLKPEDTAVYYCAKPEAQVGGYWGYDYWGQGTQVTVSS | high polyreactivity
QVQLVESGGGLVQAGGSLRLSCAASGRIFASNDMGWYRQAPGKEREWVAAITSGGSTYYADSVKGRFTISRDNAKNTVYLQMNSLKPEDTAVYYCAAGSAYYSQRYFAYGYYSWGQGTQVTVSS | low polyreactivity
QVQLVESGGGLVQAGGSLRLSCAASGSIFYINPMGWYRQAPGKERELVAAINFSDGRTYYADSVKGRFTISRDNAKNTVYLQMNSLKPEDTAVYYCAAAVYPSEYDYWGQGTQVTVSS | low polyreactivity
QVQLVDSGGGLVQAGGSLRLSCAASGSIFVSYTMGRYRQAPGKEREFVAAITKSGGSTYYADSVKGRFTISRDNAKNTVYLQMNSLKPEDTAVYYCAADWLHYVYEGYDYWGQGTQVTVSS | low polyreactivity
QDQLVESGGGLVQAGGSLRLSCAASGSTFPRYAMGWSRQAPGKERELVAAISSSGRTYYADSVKGRFTISRDNEKNTVYLQMNSLKPEDTAVYYCNAYPVFRSYDYWGQGTQVTVSS | high polyreactivity
QVQLVESGGGLVQAGGSLRLSCAASGSTFPGNAMGWYRQAPGKEREFVAVISRSGGGTYYADSVKGRFTISRDNAKNTVYLQMNSLKPEDTAVYYCAARRGLWGYGTGNGYWGQGTQVTVSS | low polyreactivity
QVQLVESGGGLVQAGGSLRLSCAASGSIFLHNAMGWYRQAPGKERELVAVITSRGGSTYYADSVKGRLTISRDNAKNTVYLQMKSLKPEDTAVYYCAAPAYHKRTSRGDYWGQGTQVTVSS | low polyreactivity
QVQLVESGGGLVQAGGSLRLSCAASGSIWYYAMGWYRQAPWTERELVAAIRRGGSTYYADYVKGRFTISRDNAKNTVYVQMNSMKPEDTAVYYCAASWNYYKLDYWGQGTQVTVSS | high polyreactivity
QVQLVESGGGLVQAGGSLRLSCAASGITFYYYVMGWYRQAPGKERELVASISRGGSTYYADSVKGRFTISRDNAKNTVYLQMNSLKPEDTAVYYCAAAGNRPWSITPFRKRYGYNYWGQGSQVTVSS | high polyreactivity

Sequence | polyreactivity (PSR sort gate)
QVQLVESGGGFVQARGSLRLSCAACGRTYFPNAMGWYRQAPGKERELVAAITTSGGITYYADSVKGRFTISRDNAKNTVYLQMNSLKPEDTAVYYCATEWRTTGYRYYYWGQGTQVTVSS | high polyreactivity
QVHLVESGGGLVQAGGSLRLSCSASGRTFGWNVMGWYRQAPGKERELVAAISGSGGSTYYADSVKGRFTISRDNAKTTVYLQMNSLKPEDTAVYYCAALYGPGREYDYWGQGTQVTVSS | low polyreactivity
QVQLVESAGGLVQAGGSLRLSCAASGSIFDDYAMGWYRQAPGKERELVAAISDSGGSTSYADSVKGRFTISRDNAKNTVYLQMNSLKPEDTAVYYCNADRDDDYDYWGQGTQVTLSS | low polyreactivity
QDQLVESRGGLVQAGGSLRLSCAASGINIGTNAMGWYRQAPGKERELVAAISGGGSTDYADSVKGRFTISRDNAKNPVYLQMNSLKPEDPAFYYCAANTGPVPLKGDYWGQGTQVTVSS | low polyreactivity
QVQLVESGGGLVQAGGSLRLSCAASGITFSVYTMGWYRQAPGKERELVAAIDSDGITNYADSVKGRFTISRDNAKNTVYLQMNSLKPEDTAVYYCAKQSGRADGVSGFDYWGQGTQVTVSS | low polyreactivity
QVQLVESGGGLVQAGVSLRLSCVPPDLPSTLNVMGWYRQAPGKERELVAAITSSGGSTRYADCVKGRFTISRDNAKNTVYLQMNSLKPEDTAVYYCAASRDKYGNRVRPFDYWGQGTQVTVSS | low polyreactivity
QVQLVESVGGLVQAGGSLSLSCAASGRMLVRNAMGWYRQAAGKERELVAVIRWSGGRTSYADSVKGRFTISRDNAKNTVYLQMNSLKPEDTAVYYCNKGGSYPTSNYKSYWVGVDYCGQGTQVTVSS | low polyreactivity
QVHLVESGGGLVQAGGSLRLSCAASGRTFQYNAMGWYRQSPGTERELVAAISWRGARTYYADSVKGRFTISRDYAKNTVYLQMNSLNPEDTAVYYCAAAPYGYRRYEYWGQGTQVTVSS | high polyreactivity
QVQLVESAGGLVQAGGTLRLSCDASGFIIYYYAMGWYRQAPGKERELVAAISRGGSTYYADSVKGRFTISRDNAKNTGYLQMISLKPEDTAVYYCASEDFPVYSYYYWGQGSQVTVSS | high polyreactivity
QVQLVESGGGLVQAGGSLRLSCAASGRTFKYYAMGWYRQAPGKERELVAAISRRGGRTYYADSVKGRFTISRDNAKNTVYLQMNSLKPEDTAVYYCAAVFETGAGGFYYTLQYDSWGQGTQVTVSS | high polyreactivity
QVQLVESGGGLVQAGGSLRLSCAASGRTFTQYAMGWYRQAPGKERELVAAIDYRGSRTYYADSVKGRFTISRDNAKNTVYLQMNSLKPEDTAFYYCNTVHRFGTYDYWGQGTQVTVSS | high polyreactivity
QVQLVESGGGLVQAGGSLRLSCAASGGIFPYYAMGWYRQAPGKERELVAGISQNDGRTYYADSVKGRFTISRDNAKNTVYLQMNSLIPDDTAVYYCATEYWYPRYGYWGQGTQVTVSS | low polyreactivity
QVQLVESGGGLDQAGGSLRLTCAASGFIIHRYAMAWYRQGPGTEMELVAAISRSGVSTNYADSVKGRFTISRDNPKNTVYLHMYSLKTEDTSVYYCASPYYSYQSYKYWGKGTQVTVSS | high polyreactivity
QVQLVESGGGLVQAGGSLRLSCAASGSIFYHYAMGWYIQAPGKERELVAAISWRGASTYYADSVKGRFTISRDNAKNTVYLQMNSLKPEDTAVYYCARLSSSHPLYRDDYWGQGTQVTVSS | high polyreactivity
QVQLVESGGGLVHAGGSLRLSCAASGRITTYYTMGRYRHAPGKERELVAAISWSGTSTYYADSVKGRFTISRDNAKNTVYLQMNSLKPEATAVYYCNAGWRYPLDSVTDDYWGQGTQVTVSS | high polyreactivity
QVQLVESGGGLVQAGGSLRLSCAASGFIFPWYTRGWYRQAPGKERELVAVINQSGGSTYYADSVKGRFTISRDNAKNTVYLQMNSLKPEDTAVYYCAAKSYRGSVKLRWSERGYWGQGTQVTVSS | high polyreactivity
QVQLVESGGGLVHAGGSLRLSCAASGITFYDYDMGWYRQAPGKERELVATITSGGDTNYADSVKGRITISRDNAKNTVYLQMNSLKPEDTAVYYCAAGSFFRDSYARIYRWFYYWGQGTQVTVSS | low polyreactivity
QVQLVESGGGLVQAGGSLRLSCAASGITCSYYTIGWYRQATGKEWELVATISQSSGSTYYADSVKGRFTISRDNAKNTVYLQINTLKPEDTAVYYCKARRDYEWVSWNVVDDYWGQGTQVTVSS | high polyreactivity
QVQLGESGGGLVQAGGSLRLSCAASGSSFWVNAMGWYRQAPGKETELVAAISRGSTYYADSVKGRFTISRDNAKNTVYLQRNSLKPEDTAVYYCNARYLYSHSRYARYHSWGQGTQVTVSS | high polyreactivity
QVQLVESGGGLVQSGGSLRLSCAASGSTFVWYAMGWYRQAPGKERELVAAITDSGDDTYYADSVKGRFTISRDNAKNTVYLQMNSLKAEDNAVYYCAVVAWSVPPYDYWGQGTQVTVSS | low polyreactivity
QVQLVESGGGLVQGGGSLRLSCAASGSNLYKNPMGWYRPAPGKERELVASITYSGGRTNYADSVKGRFTISRDTAKNTVYLQMNSLKPEDTSVYYCPAAYVYYNPAYRYAPTAVDYDYWGQGTQVTVSS | low polyreactivity

Source: the nanobody polyreactivity screen of Harvey et al. (2022)
